Data on one molecule can be found in patent publication US20070041972A1 (Alexion, published 2007).

Assay [1] addresses T1, human low affinity receptor for IgG (FcγRII) on K562 cells (human, UniProt P12318 34-317).
T1 construct: whole, on cells
T1 sequence (looked up): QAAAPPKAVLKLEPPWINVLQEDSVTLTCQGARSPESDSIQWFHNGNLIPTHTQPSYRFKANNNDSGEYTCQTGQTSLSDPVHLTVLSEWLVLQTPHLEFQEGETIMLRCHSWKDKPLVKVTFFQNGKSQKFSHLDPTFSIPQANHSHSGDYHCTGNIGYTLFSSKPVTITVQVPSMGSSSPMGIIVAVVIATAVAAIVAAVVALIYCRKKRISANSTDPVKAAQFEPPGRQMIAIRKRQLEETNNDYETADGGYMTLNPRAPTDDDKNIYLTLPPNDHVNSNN
Put plainly: flow cytometry on K562 cells, antibody complexed with FITC-rabbit Fab'2 anti-human Fab'2. (In general: In flow cytometry, cells or beads pass a laser one at a time.)
Text: Binding of the FITC—rabbit Fab′2 anti-human Fab′2 antibodies alone is also indicated.

For assay [2], the target named is T2, human high affinity receptor for IgG (FcγRI) on U937 cells (human, UniProt P12314 16-374).
T2 construct: whole, on cells; also called FcγRI receptor
The experiment in a line: flow cytometry competition with 3.0 ng/mL biotinylated hIgG on U937 cells.
Experimental: The antibody produced in accordance with this Example was tested to evaluate binding to the human high affinity receptor for IgG (FcγRI).

B1: chimeric OKT3 hG2/G4 recombinant antibody (murine OKT3 variable regions, engineered human IgG2/IgG4 heavy chain constant region, human kappa constant region) (antibody)
heavy: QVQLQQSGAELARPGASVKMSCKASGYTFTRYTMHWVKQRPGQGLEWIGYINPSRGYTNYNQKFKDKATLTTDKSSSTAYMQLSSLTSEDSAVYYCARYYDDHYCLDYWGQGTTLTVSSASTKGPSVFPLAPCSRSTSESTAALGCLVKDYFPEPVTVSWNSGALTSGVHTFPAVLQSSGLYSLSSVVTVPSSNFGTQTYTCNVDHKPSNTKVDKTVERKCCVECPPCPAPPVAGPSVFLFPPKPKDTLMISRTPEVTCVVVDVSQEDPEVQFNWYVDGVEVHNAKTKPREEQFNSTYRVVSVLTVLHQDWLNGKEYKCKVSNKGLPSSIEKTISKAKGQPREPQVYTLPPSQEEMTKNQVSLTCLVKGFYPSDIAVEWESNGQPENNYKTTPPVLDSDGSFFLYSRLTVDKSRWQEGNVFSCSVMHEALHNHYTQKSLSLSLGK
light: QIVLTQSPAIMSASPGEKVTMTCSASSSVSYMNWYQQKSGTSPKRWIYDTSKLASGVPAHFRGSGSGTSYSLTISGMEAEDAATYYCQQWSSNPFTFGSGTKLEIKRTVAAPSVFIFPPSDEQLKSGTASVVCLLNNFYPREAKVQWKVDNALQSGNSQESVTEQDSKDSTYSLSSTLTLSKADYEKHKVYACEVTHQGLSSPVTKSFNRGEC
notes: Made in two expression systems; also called chimeric antibody containing an engineered IgG2/IgG4 human constant region
On to B1, for which the binding result in assay [1] and in assay [2] was “no binding” throughout.
